Test results taken from the RNAGym collection of RNA variant scans (doi:10.7554/elife.80360).

B1: CPEB3 Ribozyme (parent)
chain: GGGGGCCACAGCAGAAGCGUUCACGUCGCGGCCCCUGUCAGAUUCUGGUGAAUCUGCGAAUUCUGCUGU

Variants of: B1
Experiment: self-cleavage, relative activity (ratio to wild type); higher = more cleavage; co-transcriptional

Variant | self-cleavage
C22U U67A | 0.369
A23C G58C | 0.891
A23C G48C | 0.924
C22U G31U | 0.116
C22U G31C | 0.103
C22U G31A | 0.183
A23C U38G | 0.216
C22U C39G | 0.207
C22U C39A | 0.148
C22G A60U | 0.0906
C22G A60C | 0.133
C22U U64A | 0.21
A23C U53C | 0.915
A23C U53G | 0.81
A23C C27A | 0.463
A23C C27U | 0.358
C22G U26G | 0.163
C22G C27A | 0.149
C22G C27U | 0.142
C22U U62A | 0.167
C22U U62G | 0.207
C22G U64C | 0.205
C22G U64A | 0.202
C22U G56U | 0.169

Variant | self-cleavage
C22U G56C | 0.21
C22U G56A | 0.187
A23C C57G | 0.412
A23C C57A | 0.339
A23C C57U | 0.406
C22U U36G | 0.175
C22U U36A | 0.196
C22U U36C | 0.157
A23C C29U | 0.389
A23C C29A | 0.603
A23C G68U | 0.995
A23C G68C | 0.977
C22G C66A | 0.135
C22G C66G | 0.182
C22U G68C | 0.517
C22U G68A | 0.48
C22U C33U | 0.315
C22U C33G | 0.18
C22U C33A | 0.176
C22U A59U | 0.201
C22U A59C | 0.188
C22U C63G | 0.156
C22U C63U | 0.265
C22U C63A | 0.178

Variant | self-cleavage
C22G U62G | 0.162
C22G U62C | 0.117
C22G U62A | 0.194
A23G C27U | 0.222
A23G C27A | 0.303
C22U G48U | 0.401
C22U G48C | 0.313
C22U C34U | 0.332
C22U C34G | 0.202
C22U C34A | 0.22
C22U G41U | 0.164
C22U G41A | 0.185
C22U G41C | 0.117
C22G C57G | 0.205
A23C G31C | 0.186
A23C G31U | 0.528
A23C A52U | 0.917
A23C A52G | 0.963
A23C A52C | 0.921
C22U U26A | 0.2
A23C U62C | 0.818
A23C U62G | 0.853
C22G C32G | 0.139
C22G C32A | 0.117

Variant | self-cleavage
C22U C57A | 0.166
C22U A23G | 0.307
C22U A23U | 0.384
C22G C33A | 0.195
C22G C33U | 0.264
C22G G28U | 0.182
C22G G28C | 0.18
C22G G41C | 0.105
C22G G41A | 0.147
C22G G41U | 0.178
A23C | 0.957
A23G | 0.984
C22G C54U | 0.204
C22G C54A | 0.121
C22G C54G | 0.125
A23C C63A | 0.738
A23C C63G | 0.573
C22U G58U | 0.374
C22U G58A | 0.255
C22U G58C | 0.223
A23G G31C | 0.237
C22G U46C | 0.192
C22G U46A | 0.205
C22U U46A | 0.29

Variant | self-cleavage
C22G U55G | 0.14
C22G U55A | 0.116
C22G U55C | 0.198
C22G G37U | 0.527
A23G G28U | 0.137
A23C C35G | 0.417
A23G C34U | 0.932
A23G C34A | 0.627
A23C C54U | 0.967
A23C C54G | 0.921
A23C C66A | 0.908
A23C C66U | 0.94
C22G C63U | 0.123
C22G C63A | 0.141
C22G C63G | 0.209
A23C U46A | 0.923
C22G G31U | 0.178
A23C U36C | 0.679
C22G G58U | 0.202
C22G G58C | 0.161
A23G C39G | 0.888
A23G C39A | 0.785
A23C C45G | 0.931
A23C C45U | 0.961

Variant | self-cleavage
A23C C45A | 0.986
C22U A60C | 0.158
C22U A60G | 0.223
C22U A60U | 0.137
A23C A42G | 0.901
A23C A40G | 0.92
C22G C29U | 0.07
C22G C29G | 0.225
A23C U49C | 0.927
A23C U49A | 0.951
A23C U69A | 0.959
A23C U69C | 1.04
A23G A60C | 0.249
A23G A60G | 0.866
A23G A60U | 0.385
A23G G37A | 0.254
C22G U44A | 0.158
C22G U44C | 0.22
A23G C32A | 0.436
A23G C32U | 0.976
C22U G30C | 0.181
C22G G50U | 0.145
C22G G50C | 0.127
A23G C33A | 0.679

Variant | self-cleavage
A23G C33U | 0.939
A23G C33G | 0.262
A23C U61G | 0.855
A23C U61A | 0.832
A23G C66A | 0.597
A23G C66G | 0.594
A23G C66U | 0.964
A23C C24U | 0.52
A23C C24G | 0.414
A23C C24A | 0.785
A23C G25A | 0.203
C22U G65A | 0.216
C22U G65C | 0.248
C22U G65U | 0.195
C22G U67G | 0.121
C22G U67A | 0.242
C22G U67C | 0.175
C22G U61C | 0.167
C22G U61G | 0.257
C22U U49C | 0.294
C22U U49G | 0.247
A23G C57U | 0.418
A23G C57G | 0.332
C22U U55G | 0.169

Variant | self-cleavage
C22U U55C | 0.157
C22U U55A | 0.182
C22G C24A | 0.129
A23C U64G | 0.878
A23C U64C | 0.912
A23G G25U | 0.177
A23G G25A | 0.156
C22U G50U | 0.312
C22U G50C | 0.243
C22U G50A | 0.355
C22U C24G | 0.169
C22U C24U | 0.105
C22G C35A | 0.169
C22G C35G | 0.231
C22G C35U | 0.208
A23G A40G | 0.992
A23G A40C | 0.328
C22U U43G | 0.222
C22U U43A | 0.217
A23C U44C | 0.874
A23C A51C | 0.942
A23C A51U | 0.959
A23C A51G | 0.899
C22U C45U | 0.318

Variant | self-cleavage
C22U C45A | 0.33
C22U C45G | 0.25
A23C G56C | 0.762
A23C G56A | 0.852
A23C G30C | 0.58
A23C G30A | 0.743
C22G U43C | 0.174
C22G U43A | 0.114
C22G U43G | 0.133
C22G G30A | 0.219
C22G G30U | 0.162
C22G G30C | 0.166
C22G U49C | 0.123
C22G U49G | 0.153
C22U A51G | 0.314
C22U A51C | 0.291
C22U G47A | 0.279
C22U G47U | 0.37
C22U G47C | 0.389
C22U U69C | 0.601
C22U U69A | 0.384
C22U U69G | 0.462
A23G C24U | 0.833
A23G C24A | 0.711

Variant | self-cleavage
A23G C24G | 0.36
C22G U69C | 0.374
A23C U26G | 0.749
A23C C32G | 0.329
A23C C32A | 0.59
C22U U44A | 0.318
C22U U44G | 0.241
C22U U44C | 0.31
C22G U36A | 0.152
C22G U36G | 0.143
C22G U36C | 0.236
C22G C45G | 0.229
C22G C45A | 0.223
A23G C35A | 0.215
A23G C35G | 0.336
C22G A59U | 0.246
C22G A59G | 0.204
C22G C39A | 0.0996
C22G C39G | 0.0932
C22G C39U | 0.236
C22U C35A | 0.178
C22U C35U | 0.183
C22G G68U | 0.197
C22U A52C | 0.233

Variant | self-cleavage
C22U A52G | 0.379
A23C U43G | 0.82
A23C U43A | 0.771
A23G A59U | 0.817
A23G A59C | 0.699
C22G G48U | 0.161
C22G G48A | 0.226
C22G U38C | 0.232
C22G U38A | 0.165
C22G U38G | 0.177
A23C G50C | 0.981
A23C G50A | 0.946
A23C G50U | 0.953
C22U C32U | 0.33
C22U C32A | 0.17
C22G C34A | 0.194
C22G C34G | 0.177
A23G G30A | 0.79
A23G G30U | 0.229
A23G G30C | 0.432
C22U A42U | 0.27
C22U A42C | 0.247
C22U G28A | 0.117
C22U G28U | 0.148

Variant | self-cleavage
C22U U61G | 0.264
C22U U61C | 0.134
A23C A59G | 0.96
A23C A59C | 0.69
A23C G41U | 0.815
A23C G37C | 0.254
A23C G37A | 0.3
A23C C39G | 0.905
A23C C39A | 0.798
C22G G25C | 0.248
C22G G25A | 0.177
C22G G25U | 0.146
C22G G56U | 0.202
C22G G65A | 0.173
C22G G65U | 0.212
C22G G65C | 0.196
A23C C33G | 0.439
A23C C33U | 0.937
C22U C27A | 0.2
C22U C27G | 0.215
C22U C27U | 0.164
A23G C54A | 0.712
A23G C54G | 0.919
A23G C54U | 0.964

Variant | self-cleavage
C22U U38C | 0.304
C22U U38A | 0.272
C22U U38G | 0.141
A23C U67C | 0.97
A23C U67A | 0.988
A23G C29G | 0.211
A23G C29A | 0.401
C22U C54A | 0.19
A23G A51U | 1
A23G C63G | 0.521
A23G C63A | 0.681
A23G C63U | 0.95
A23C G65U | 0.674
A23C G65C | 0.535
A23C G65A | 0.764
C22U C29U | 0.14
C22U C29G | 0.152
C22U G25A | 0.164
C22U G25C | 0.153
C22U G25U | 0.153
C22U U53C | 0.227
C22U U53G | 0.111
C22U U53A | 0.193
A23C U55C | 0.891

Variant | self-cleavage
A23C A60C | 0.327
A23C A60G | 0.828
C22U G37A | 0.957
C22U G37C | 0.216
C22U | 0.337
C22U C66A | 0.19
C22U C66G | 0.132
A23G C45U | 0.991
A23G C45G | 0.971
A23C C34U | 0.936
A23C C34G | 0.36
A23C C34A | 0.696
A23G A52U | 0.933
A23G A52G | 1.02
A23G A52C | 0.935
A23C G28A | 0.206
A23C G28C | 0.183
C22G G47U | 0.133
C22G G47A | 0.149
C22G G47C | 0.122
C22G U53G | 0.129
C22G U53C | 0.184
